Test results: patent publication US20170218087A1

Molecular target: cell surface TrkA on the human erythroleukemic cell line TF-1 (human), P04629
Test: cell-based or functional assay

Sequence of cell surface TrkA on the human erythroleukemic cell line TF-1 (human), P04629 (P04629 33-796): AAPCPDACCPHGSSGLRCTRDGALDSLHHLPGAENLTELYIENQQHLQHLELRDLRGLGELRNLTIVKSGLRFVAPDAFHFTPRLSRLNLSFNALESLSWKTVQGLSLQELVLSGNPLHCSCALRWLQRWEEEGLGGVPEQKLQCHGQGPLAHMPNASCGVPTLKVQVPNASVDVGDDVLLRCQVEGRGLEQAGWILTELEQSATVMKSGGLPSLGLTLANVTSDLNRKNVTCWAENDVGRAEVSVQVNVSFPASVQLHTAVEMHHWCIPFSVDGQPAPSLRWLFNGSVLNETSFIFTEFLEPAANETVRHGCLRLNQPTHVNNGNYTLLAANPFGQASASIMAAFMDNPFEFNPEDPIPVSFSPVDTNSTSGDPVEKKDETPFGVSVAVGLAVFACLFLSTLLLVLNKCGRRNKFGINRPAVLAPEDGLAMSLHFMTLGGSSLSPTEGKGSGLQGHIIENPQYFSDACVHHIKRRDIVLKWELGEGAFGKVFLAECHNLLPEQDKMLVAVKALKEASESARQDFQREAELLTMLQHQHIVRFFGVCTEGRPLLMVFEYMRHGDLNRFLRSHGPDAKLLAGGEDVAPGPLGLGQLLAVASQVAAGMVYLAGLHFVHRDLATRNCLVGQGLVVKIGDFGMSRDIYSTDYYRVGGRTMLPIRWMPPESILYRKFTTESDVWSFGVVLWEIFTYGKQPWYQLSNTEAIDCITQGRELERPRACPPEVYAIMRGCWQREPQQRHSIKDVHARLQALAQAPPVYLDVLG

TF-1 cell proliferation assay IC50 (NGF-induced): 0.23 µg/mL
B1: MNAC13 mouse antibody (antibody, mouse IgG1, kappa)
heavy: EVKLVESGGGLVQPGGSLKLSCAASGFTFSTYTMSWARQTPEKRLEWVAYISKGGGSTYYPDTVKGRFTISRDNAKNTLYLQMSSLKSEDTALYYCARGAMYGNDFFYPMDYWGQGTSVTVSSKTTPPSVYPLAPGSAAQTNSMVTLGCLVKGYFPEPVTVTWNSGSLSSGVHTFPAVLESDLYTLSSSVTVPSSPRPSETVTCNVAHPASSTKVDKKIVPRDCGCKPCICTVPEVSSVFIFPPKPKDVLTITLTPKVTCVVVDISKDDPEVQFSWFVDDVEVHTAQTQPREEQFNSTFRSVSELPIMHQDWLNGKEFKCRVNSAAFPAPIEKTISKTKGRPKAPQVYTIPPPKEQMAKDKVSLTCMITDFFPEDITVEWQWNGQPAENYKNTQPIMNTNGSYFVYSKLNVQKSNWEAGNTFTCSVLHEGLHNHHTEKSLSHSPGK
light: QIVLTQSPAIMSASLGEEITLTCSASSSVSYMHWYQQKSGTSPKLLIYTTSNLASGVPSRFSGSGSGTFYSLTISSVEAEDAADYYCHQWSSYPWTFGGGTKLEIKADAAPTVSIFPPSSEQLTSGGASVVCFLNNFYPKDINVKWKIDGSERQNGVLNSWTDQDSKDSTYSMSSTLTLTKDEYERHNSYTCEATHKTSTSPIVKSFNRNEC
